assay: soluble on expression in E. coli; label from the status in PepcDB or PDB records

Sequence | soluble on expression in E. coli
MGSDKIHHHHHHVALLQDELKIRKIHELLHMKLALPPYQRPYSWSVKSANTLFQDTYNAYHEGLQEYRVGSVILHKENGKYNIVDGQQRLTTISILLYCLGEKDLGLLQEKYNQLSNDVIVTNYEILSKRISELPKDEQNKYKNYLFERCSVVQIVTDSEQEAFQFFDSQNSRGKELTPHDLLKSYHLREMNDEEENQKIRIINQWENVNQDDLNDLFKIYLYPLTQWYKGKSGLGYSSSKIDVFKGIKTTNVFNYAIYHKASNLFVEQFNANGSNELLASRALNQFQLTQPLMAGKRFFYYTLHYRNLLEQVQRLVSKVHTEEQVPSRRTGDLYIKQLYECALLFFADRFGIENLSKAVMQQLYTWSYSLRLVMEAVYLQTINKYVRGEHERVNYGLGMFSEISEMKNGEELKLISLEQPKIENKNKEKYRDVYDLLCEWNRW | not soluble
MGSDKIHHHHHHVATGTGLVAIPAAEKVGSEGYVIGIDMTPGMLHQARIKIAAAKLQNIELIEADVEYFNFSESSFDVVFCCEAIVLVPDILAILKKWYRFLKPGGFVAFTCPPETAFMASLQQRICARVLGVSLPHILEPLGTPEKCRNLLNQAGFRDIEIKIEPSGRYRPLRDNRLSEIAININFKGNPLLSKLSQEQLNQLQVEYKAEIEKLATEQGIWEDTTKLFVRARK | not soluble
MGSDKIHHHHHHVAVKAYLKRELRNLQSLAPAVRTAKFSLYNFGTRSAGLFVEPEFKLLAHLRPVKLAIDIGGNWGQSVLALQRYAAPERIVTFEPNPELYRRLSARFRSDPSIQVENVGLGDAAGQFDLHIPLYRNFVYDGLASLNKDEAAQWLNPRTMARFDPSKLTIQSHTVRVVKLDDYNLVPDIIKIDVQGLEDAVARGGIKTIDRAKPAMIVEAPSASFVQMMADCGLRPYTWNGTRLVDAADGSNVMFLSDEKLRKLVKVRPKPEKPE | not soluble
MGSDKIHHHHHHVFDKNLRNSFFAEPYSSEPLAIRIREVLNGKVGFYSVGLYPASLAYNCALQNEGFNILLAPRDGRELFGAFSDIDLSEMDNGIKNKIESMAIPNEDKSGRYNTLKDLLINCELVVLSSNSKHIITDLDLAFKLRKELNRDNVLIACLVGSFCHDHNLNESFVLCEKLNKLAFFSGFHRHGALRNPLDSFTANFCHPDSMNAILGAKLLNKISPNIQVSAGIHNVEGQYIKAAKNISSIFAGFGHTFHKNNPGLLPTLLTLLLDQCLDQAAYVSMSRTDREDLYSKQPFPITELGYSVQRIEASYVKDGDFVQVRDHTFTQLKAMVADVRGSMMLPVSGNPTRNFQAGQVLAERMIEYKRCPKGVDEFIEWCERSGLKRGALEGINSLNYWPNILRKYSIPLNNSSMINLLYMCILGPVEIKNCIYNVMSSSRELANYCQESVKSSQNKKISEALDNFHLKTSVDFVTKSLIDDDKLFFENNEIGFDNPLGAQNMPIYNKVIDYMETYLLESNL | not soluble
MGSDKIHHHHHHVHPTLPHAGKNWPLSARDSPATAMAGKGINAVCLFRYQRRWHQSCFILEHAPGTRNPMTWTECLAVTAFGAFVIDRYDWTGTVKRSSNDEELLVHERLGVVSVQTSPLRRAKPALRHLRGLLIEYDCPVECIAVFAAPHCALDPTLPETTLQASELHHFMRTRFNRFRDSHRQYLDSERIAAYLQLHCTDWGENCV | not soluble
MGSDKIHHHHHHVLAPSSADTLQGLPYEVVSYRKTYESGYRSDWHSHPRHQIIYSVSGLMMTDTEGVRWAVPSGFGLIVPAGIAHTTKMIGDVSIETLYVSPSSRGRSAFESCRVVSISAMLASLISELCREELRDRNSRKAFHLRQLIFLELSDAPTSHLAVKYPVDPQLRRVCDALIADPANSWTIDQWAFEIGKSRRSFTRAFYSQTDQTFRQWTQRLRCQLALQKRAEGQSLERIARDLGYGSRYSLEAMMQKLIMVEEIN | not soluble
MGSDKIHHHHHHVNPLLDSLQPYPFEKLRALFKDVTPNAGLAHISFGIGEPKHPTPALIRDAVVASLGGLSAYPATSGSPALRESIAKWVTQRYNLPPVDPATQVLPVSGSREALFSLAQTVLDPQKNAGGEPAIVLCPNPFYQIYEGAAILAGAQPYFVNSDPARNFACDYSAVPAEIWARTQLLYVCSPGNPTGAVLTLDDWRELFALSDRYGFVIASDECYSEIYFDEAKPPLGGLEAAHKLGRGFERLVMLSSLSKRSNVPGMRSGFVAGDAAILKDFLLYRTYHGAALSTVFQNASIAAWNDEAHVRENRAKYLQKFSTVTPMLAEVLDVRLPDAAFYLWADVSRTGLTDTVFAQRLYADYNVTVLPGSFLARTAHGVNPGRNFVRMALVADVDECTQGAQRIVDFCRALAG | not soluble
MGSDKIHHHHHHVPATYPLSSCIEWQFAEAGDLAARVRAAKADGFDLVEFHLWRDKPVEAIGAALADTGVALTGVCVDPRRSIVDPAERAEMVEAVRETIAATAPLGKPPLIVASGFRVEGMSEEDHFANAVAALKQAAALAEDAGVTLLLEPLNTRLFSAMYLVSTTLGLDLVEAVGSPNLRLLYDVWHSAVMGEDIADVLAGRIGLVAHVQVADMEDRNEPGTGTVDWAHVMNTLKSLGYQGSIGMEYFPTLPMDQSLKLTRETLAL | not soluble
MGSDKIHHHHHHVVKHPAWSRFGAEVRRLRVQSGYSQAQLARAIPLSQSMLSGIELGRKGAKRDHAEALDRVLNTGGRLVRLWDSLNSIPAHPSWFQNVLALERKAVEIREYQMVVLPGLLQTEDYARSLIRPAQPWANAEKVDELVHARMSRREILTAPDRPLCWFVVDQVVIDRVTGSPTVMKEQLTYLLNLIEDHTIRFQVFPQEIPLHPGLTGPIRIMSFDDRPTMAYVEHTLGGLLTDQQQEVRYCSAIFSALQSEALSSHASADYIRRRKDQL | not soluble
MGSDKIHHHHHHWLDLAPSTQVDTETSINVLSDIEFTLNGIYSTMQSSDAYSGRLVYYGDVTGDDMQAVSSTKRTGNYYRFNFTKDNGPSSHWSYLYSIIQNCNLILMNVDKLSIDEDETEYKNDLKGQALAIRGMALFDLTRIFGYPYLKDNGASLGVPIVKELSTIDSKPARNTVAECYTEIISDLKNSTELLSGDFNKGKVNRWAAMTLLSRVYLYKGEYNEALTMAENAIKGAEKEGYALWTNEEYPTAWGNDASASNPGEILFEIVNLTTDSPGKESMGYLNSYNGYDDMCITCSFYQLLKKDPKDVRLKILSFDKKYYAYVNKYQPQQGENITDANIPLIRLSEAYLNAAEAAVQTGDNAKAVKYLNSIVQRANPENSVEGKTLTLENVLDERRKELVAEGHRMYDVIRNGMTVKRIDVKDSDINKTKHNTAYMEYDWNFHKILLPIPKKEMDANPNMKQNPGYVD | not soluble
MGSDKIHHHHHHWQVTGSKTTQDGVEAARMCGIDSYPLRLEPQLVCDTEDLDALMNVDALVITLPARRTGAGEGFYLQAVQEIVDTALAYHIPRIVFTSSTSVYGNVNGTVKENSPRLPQTASGQVLKELEDWLHNLPGTSVDILRLAGLVGPSRHPGRFFAGKSAPDGQHVVNLVHLQDVVAAIELLLQAPKGGHIYNLCAPRHPARGLFYPQMARELGLPPPVFSDSPDGGQGKIVDGNRICNELGFEYQYPDPLVMPME | not soluble
MGSGKERDTFVYLAKLSEQAERYEEMVESMKSVAKLNVDLTVEERNLLSVGYKNVIGSRRASWRIFSSIEQKEAVKGNDVNVKRIKEYMEKVELELSNICIDIMSVLDEHLIPSASEGESTVFFNKMKGDYYRYLAEFKSGNERKEAADQSLKAYEIATTAAEAKLPPTHPIRLGLALNFSVFYYEIMNAPERACHLAKQAFDEAISELDTLNEESYKDSTLIMQLLRDNLTLWTSDISEEGGDDAHKTNGSAKPGAGGDDAE | soluble
MGSHHHHHHDITSLYKKAGSENLYFQGMKFSEECRSAAAEWWEGSFVHPFVQGIGDGTLPIDRFKYYVLQDSYYLTHFAKVQSFGAAYAKDLYTTGRMASHAQGTYEAEMALHREFAELLEISEEERKAFKPSPTAYSFTSHMYRSVLSGNFAEILAALLPCYWLYYEVGEKLLHCDPGHPIYQKWIGTYGGDWFRQQVEEQINRFDELAENSTEEVRAKMKENFVISSYYEYQFWGMAYRKEGWSDSAIKEVEECGASRHNG | soluble
MGSMVCDVCHHECETAKELESHRQSCINGQCPYCMTITEATESALQAHYSICKLTGR | soluble
MGSPAHRPALLLLLPPLLLLLLLRVPPSRSFPGSGDSPLEDDEVGYSHPRYKDTPWCSPIKVKYGDVYCRAPQGGYYKTALGTRCDIRCQKGYELHGSSLLICQSNKRWSDKVICKQKRCPTLAMPANGGFKCVDGAYFNSRCEYYCSPGYTLKGERTVTCMDNKAWSGRPASCVDMEPPRIKCPSVKERIAEPNKLTVRVSWETPEGRDTADGILTDVILKGLPPGSNFPEGDHKIQYTVYDRAENKGTCKFRVKVRVKRCGKLNAPENGYMKCSSDGDNYGATCEFSCIGGYELQGSPARVCQSNLAWSGTEPTCAAMNVNVGVRTAAALLDQFYEKRRLLIVSTPTARNLLYRLQLGMLQQAQCGLDLRHITVVELVGVFPTLIGRIGAKIMPPALALQLRLLLRIPLYSFSMVLVDKHGMDKERYVSLVMPVALFNLIDTFPLRKEEMVLQAEMSQTCNT | soluble
MGSSHHHHHHGGTGENLYFQGGSGASTANASVDGSCPAMRDAADEALWAKLDEVQKLLANRSDAKELFTKYTVLRSVVGEVKPVFADSVRTRVKVFCEEPSFAAPEECDDFEPVSLHVVAYLNYKLFMEEMKELMVQARLLKSIGMEGSGLRFQRREQNIVAPGNEPRTGSSSKPSAQVSMHKPSYRPATLIPVGTLRLRRVSKASGAGKLTEVVAKIERVCVVKSARCFDVGRTLMRAAEKIARDAFHVRWALTYAQLSSKDFYTKAGYTPKDGRACMDLHMPHVVMVKCLVDASM | not soluble
MGSSHHHHHHGGTGENLYFQGGSGLLSHHCIYPSRMFGDGRLLMDTSISGGMLLGLDVCGGVKLWPQHQYTAVELILPSALSGVREVLVPPVSMSGAGEESQRASEAGSGKQRASSPPLPRNLPGSRVIRIIHEASEIPAEVAGSYNSALNGSRRKGSKAMRSLDRGPAGTSGGRASSSIVPRYFDEFHRLRSQRVMEGSLKTVLEATNASIIGEARLRRQRRRYAVKHNKTIFIKGKTAAGDEQ | not soluble
MGSSHHHHHHGGTGENLYFQGGSGMEKAIRDRVEKWKKEHTIDGKDATNEHAYESLNELILDGKKLTSIKNEEKELLKNFKNLERLCLNQTGIQTLENIPSIATLNVLELTDNHLSSVEVLKYIVQNFPNIKTLEIGGNHFKNINDFETLKELKNLVRLGVQFNPFADNPNYRKELFEFLPNVKIIDCYNKEGMEVLSSDEEEEEEYEEDNTLKNFYEADFKDEDDEDEEFVPNDNEDDDEDDELDDDLEDEDMEDLDKEDLDKEDYDIDTKETEGVNKDEKSNKRKQDALDNTNDMDLKKTKLE | soluble
MGSSHHHHHHGKTIFVIVPTNEEQVAFLEALAKQDELNFDWQNPPTEPGQPVVILIPSDMVEWFLEMLKAKGIPFTVYVEEGGSENLYFQGGGGGGAKDCITRGPNSMIAWKYEDGSFQCDNCIGAHAVGVSSGTVRRRWTEYDKDRNILNSFVEEHREGKKLVLHDESRGMSILLRSDLSGIRTEGEQTFRQLYSGAFISVVDCT | soluble
MGSSHHHHHHGKTIFVIVPTNEEQVAFLEALAKQDELNFDWQNPPTEPGQPVVILIPSDMVEWFLEMLKAKGIPFTVYVEEGGSENLYFQGGGGGGRPIVANRARHPALIVDIPFAALAWQCVQFLAVVVAHSLMRQMMLASVIRFTAVFLGIRRCRGAFVVAPLFVLQPLLQHLQQLITHPLTCLQGGIQWQLHALVEHLVHLQHLPSPRVQLSHVTKKRRAPVRKVVCGRIIHVHRTLLLLKQLRLLGVPGTQRAESSEHGGEPLTAVLVQLDKSIASRSGDNGDGGGRCR | not soluble

From the DeepSol protein solubility set
